{"source": "patent US9658208B2", "about": "“Methods and G proteins for screening and identifying ligands of G protein-coupled receptors” (Fred Hutchinson Cancer Research Center, priority 2011, dated 2017)", "molecules": {"B1": {"name": "Gαs-Gαt-13: Gαs-based chimeric G protein, final 13 C-terminal amino acids substituted with those of Gαt (protein)", "chain": "MGCLGNSKTEDQRNEEKAQREANKKIEKQLQKDKQVYRATHRLLLLGAGESGKSTIVKQMRILHVNGFNGEGGEEDVPDYASNSDGEKATKVQDIKNNLKEAIETIVAAMSNLVPPVELANPENQFRVDYILSVMNVPNFDFPPEFYEHAKALWEDEGVRACYERSNEYQLIDCAQYFLDKIDVIKQADYVPSDQDLLRCRVLTSGIFETKFQVDKVNFHMFDVGGQRDERRKWIQCFNDVTAIIFVVASSSYNMVIREDNQTNRLQEALNLFKSIWNNRWLRTISVILFLNKQDLLAEKVLAGKSKIEDYFPEFARYTTPEDATPEPGEDPRVTRAKYFIRDEFLRISTASGDGRHYCYPHFTCAVDTENIRRVFNDCRDIIIKENLKDCGLF", "modifications": "Chimeric protein", "notes": "Gαs-based chimeric G protein, final 13 C-terminal amino acids substituted with those of Gαt"}}, "target": "T1, M2AchR (Rattus norvegicus, UniProt P10980)", "T1 construct": "expressed in transfected cells; host or cells: HEK-293 (chimera stably or transiently expressed; M2AchR transiently transfected)", "T1 sequence (P10980 1-466)": "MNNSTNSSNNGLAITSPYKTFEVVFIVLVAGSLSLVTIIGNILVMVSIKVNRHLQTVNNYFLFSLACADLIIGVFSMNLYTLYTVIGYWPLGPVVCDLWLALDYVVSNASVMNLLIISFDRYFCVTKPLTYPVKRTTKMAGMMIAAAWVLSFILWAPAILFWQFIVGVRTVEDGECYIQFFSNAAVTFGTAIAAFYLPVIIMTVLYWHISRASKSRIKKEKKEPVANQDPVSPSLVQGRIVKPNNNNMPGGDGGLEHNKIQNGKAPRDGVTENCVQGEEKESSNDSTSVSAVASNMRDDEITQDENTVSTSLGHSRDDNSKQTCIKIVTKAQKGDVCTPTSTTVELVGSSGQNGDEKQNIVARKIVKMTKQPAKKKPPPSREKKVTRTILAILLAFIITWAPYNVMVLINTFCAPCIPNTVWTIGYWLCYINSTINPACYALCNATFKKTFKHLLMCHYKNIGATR", "experiment": "CRE-SEAP reporter gene assay, stably versus transiently expressed chimeric G proteins", "format": "cell-based", "conditions": "cells transiently expressing the chimera construct, 10 uM acetylcholine", "procedure": "The ligand-induced SEAP activity for cells stably transfected and expressing Gαs-based chimeric G proteins was compared with that of cells transiently expressing Gαs-based chimeric G proteins. Stable expression is achieved by integration of the construct of interest into the target cell's chromosome. Cell lines were prepared that stably expressed Gαs-Gαt-13, Gαs-Gαi-13, and Gαs-Gαo-13 G protein chimeras. […] Therefore, cell lines stably expressing the Gαs-based chimeric G proteins can provide enhanced sensitivity for the screening and identification of GPCR ligands.\nPreparation of cells stably expressing G protein chimeras: HEK-293 cells were transfected with each of the G protein chimeras of interest. Following transfection, the cells were split and diluted in media containing 0.7 mg/ml neomycin (Gibco). Cells were grown until clones could be picked. At least 25 clones from each of the stables were picked, and tested for their suitability as sensor cell lines, by transfecting them with CRE-SEAP and cDNA encoding the M2AchR receptor. Those stables that elicited the maximal signal to noise following activation of the GPCRs were chosen and maintained. […]\nFollowing transfection, the cells were maintained for 48 hours in 200 ul serum free media containing 10 uM acetylcholine (Sigma). […] Fluorescence was then measured using a CytoFluor 4000 multi well plate reader (Applied Biosystems).", "data": [{"molecule": "B1", "values": [{"measurement": "increase in SEAP activity", "value": "approximately 10 fold"}]}]}
